Assay results published in publication PMC5311487.
Where two headings read alike, the source gives them in different places.

Legend:
MEC-8 RRM1 [1] = target: T1, MEC-8 RRM1 (Caenorhabditis elegans, UniProt G5ECJ4 28-123, C54A;C102A); test: ITC
T1 sequence: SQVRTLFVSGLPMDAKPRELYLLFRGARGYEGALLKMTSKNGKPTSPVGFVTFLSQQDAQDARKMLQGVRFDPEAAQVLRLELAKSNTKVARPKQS

MEC-8 RRM1 [2] = target: T1, MEC-8 RRM1; test: ITC; remark: listed apart in the source

AGCACAUUUUUUUUUUUUAGCACA (ssRNA) [14-nt spacer]
Kd (MEC-8 RRM1 [1]): 0.11 ± 0.07 µM

AGCACAUUUU (ssRNA) [6-mer + 4U]
Kd (MEC-8 RRM1 [1]): 1.75 ± 0.03 µM

AGCACAUUUUUUAGCACA (ssRNA) [8-nt spacer]
Kd (MEC-8 RRM1 [1]): 0.18 ± 0.04 µM

ACCACAUUUUUUUUACCACA (ssRNA) [10-nt spacer (G2C/G16C)]
Kd (MEC-8 RRM1 [1]): 1.56 ± 0.01 µM

AUCACA (ssRNA) [6-mer (G2U)]
Kd (MEC-8 RRM1 [1]): 20.4 ± 0.8 µM

AACACAUUUUUUUUAACACA (ssRNA) [10-nt spacer (G2A/G16A)]
Kd (MEC-8 RRM1 [2]): 0.9 ± 0.1 µM

AGCACAUUUUUUUUUUAGCACA (ssRNA) [12-nt spacer]
Kd (MEC-8 RRM1 [1]): 0.08 ± 0.02 µM

AGCACAUUUUUUUUAGCAUA (ssRNA) [10-nt spacer (WT/C19U)]
Kd (MEC-8 RRM1 [1]): 0.45 ± 0.03 µM

AGCACAUUUUAGCACA (ssRNA) [6-nt spacer]
Kd (MEC-8 RRM1 [1]): 0.33 ± 0.01 µM

AUCACAUUUUUUUUAUCACA (ssRNA) [10-nt spacer (G2U/G16U)]
Kd (MEC-8 RRM1 [1]): 1.29 ± 0.04 µM

AAUCCAUUGCACUCCGGAUUU (structured_RNA) [U1A stem-loop]
Kd (MEC-8 RRM1 [1]): 0.24 ± 0.02 µM

AGCACAUUAGCACA (ssRNA) [4-nt spacer]
Kd (MEC-8 RRM1 [1]): 0.38 ± 0.09 µM

AGCACAUUUUUUUUAUCACA (ssRNA) [10-nt spacer (WT/G16U)]
Kd (MEC-8 RRM1 [1]): 0.26 ± 0.08 µM

AGCACAUUUUUUUUAGCACA (ssRNA) [10-nt spacer]
Kd (MEC-8 RRM1 [1]): 0.15 ± 0.04 µM
